Tests used:
[1] = target: casein
[2] = target: elastin-orcein
[3] = target: myofibrillar protein
[4] = target: succinyl-Ala-Ala-Pro-Ala-p-nitroanilide (Artificial Sequence)
[5] = target: succinyl-Ala-Ala-Val-Ala-p-nitroanilide (Artificial Sequence)
[6] = target: succinyl-Ala-Ala-Pro-Leu-p-nitroanilide
[7] = target: succinyl-Ala-Ala-Pro-Phe-p-nitroanilide (Artificial Sequence)

Substance | Specific activity (unit/mg protein), casein (unit/mg protein) [1] | Specific activity (unit/mg protein), elastin-orcein (unit/mg protein) [2] | Specific activity (unit/mg protein), myofibril (unit/mg protein) [3] | kcat /Km [4] | kcat /Km [5] | kcat /Km [6] | kcat /Km [7]
subtilisin YaB mutant 151L (enzyme) | 717 | 161 |  |  |  |  | 
subtilisin YaB mutant G124A (enzyme) | 3800 | 647 | 1020 |  |  |  | 
subtilisin YaB mutant G124A (enzyme; unit assumed) |  |  |  | 17000 M⁻¹ s⁻¹ | 122000 M⁻¹ s⁻¹ |  | 
subtilisin YaB mutant G124I (enzyme) | 602 | 64 | 717 |  |  |  | 
subtilisin YaB mutant G124L (enzyme) | 1250 | 157 | 366 |  |  |  | 
subtilisin YaB mutant G124V (enzyme) | 1400 | 425 | 605 |  |  |  | 
subtilisin YaB mutant G124V (enzyme; unit assumed) |  |  |  | 416 M⁻¹ s⁻¹ | 6480 M⁻¹ s⁻¹ |  | 
subtilisin YaB mutant G151A (enzyme) | 1780 | 355 | 750 |  |  |  | 
subtilisin YaB mutant G151A (enzyme; unit assumed) |  |  |  | 2690 M⁻¹ s⁻¹ | 56100 M⁻¹ s⁻¹ | 5590 M⁻¹ s⁻¹ | 
subtilisin YaB mutant G151I (enzyme) | 511 | 138 |  |  |  |  | 
subtilisin YaB mutant G151V (enzyme) | 618 | 148 |  |  |  |  | 
subtilisin YaB mutant G159A (enzyme) | 7780 | 2080 | 2040 |  |  |  | 
subtilisin YaB mutant G159A (enzyme; unit assumed) |  |  |  | 1040 M⁻¹ s⁻¹ | 15700 M⁻¹ s⁻¹ | 3860 M⁻¹ s⁻¹ | 40500 M⁻¹ s⁻¹
subtilisin YaB mutant G159F (enzyme) | 135 | 12 |  |  |  |  | 
subtilisin YaB mutant G159I (enzyme) | 872 | 142 |  |  |  |  | 
subtilisin YaB mutant G159L (enzyme) | 112 | 9 |  |  |  |  | 
subtilisin YaB mutant G159S (enzyme) | 8940 | 1510 | 2330 |  |  |  | 
subtilisin YaB mutant G159S (enzyme; unit assumed) |  |  |  | 1600 M⁻¹ s⁻¹ | 19800 M⁻¹ s⁻¹ | 4130 M⁻¹ s⁻¹ | 35700 M⁻¹ s⁻¹
subtilisin YaB mutant G159V (enzyme) | 431 | 37 |  |  |  |  | 
subtilisin YaB mutant G159W (enzyme) | 1630 | 324 | 672 |  |  |  | 
subtilisin YaB mutant G159Y (enzyme) | 1010 | 203 |  |  |  |  | 
wild type subtilisin YaB (enzyme) | 8250 | 541 | 5160 |  |  |  | 
wild type subtilisin YaB (enzyme; unit assumed) |  |  |  | 1670 M⁻¹ s⁻¹ | 14200 M⁻¹ s⁻¹ | 5250 M⁻¹ s⁻¹ | 4600 M⁻¹ s⁻¹
